The series concerns the molecule itself. Kind of series: SEC; analytical gel filtration, Superdex HR75 10/30, 20 mM Tris-HCl pH 8.0, 250 mM NaCl, SaMazF at 3.3 mg/ml; apparent molecular weight about 31 500 Da. (In general: In gel filtration, larger molecules generally elute earlier.)

The term stoichiometry N denotes the number of molecules, sites or subunits per partner or assembly.

B1: Staphylococcus aureus MazF toxin (SaMazF), N-terminally His-tagged (enzyme)
chain: IRRGDVYLADLSPVQGSEQGGVRPVVIIQNDTGNKYSPTVIVAAITGRINKAKIPTHVEIEKKKYKLDKDSVILLEQIRTLDKKRLKEKLTYLSDDKMKEVDNALMISLGLNAVAHQKN
notes: SaMazF, the MazF toxin (ribonuclease) of the Staphylococcus aureus mazEF module; wild type; 13C15N-labelled for the NMR experiments; The models number the tag's last residues Gln-1, Asp0, Pro1, so the tag's Pro may stand at position 1 of SaMazF in place of Met1; The measured mass is 14 794 Da, for the chain with the tag and without the N-terminal methionine; also called SaMazF2 (the dimer); …
For B1, the “stoichiometry N” value turned out to be 2.

The values above are taken from PMC4041440, “Structural and biophysical characterization of Staphylococcus aureus SaMazF shows conservation of functional dynamics” (Nucleic Acids Research, 2014).
